From publication PMC4676693 come the findings set out here.

What all share (test): SPR; Biacore T200; anti-His antibody amine-coupled on a CM5 chip captures the His-tagged receptor (100 nM FcγRIa, 300 nM FcγRIIa_R131 and FcγRIIb, 200 nM FcγRIIIa_V158, 200 nM FcRn); IgG1 glycovariant, Fc-fragment or pre-incubated IgG1 complex injected as analyte (FcγRI 100 nM, FcγRIIa/b 300 nM, FcγRIIIa 200 nM); non-kinetic comparison, WT set as 100%; HBS-N (10 mM HEPES, pH 7.4, 150 mM NaCl)

Test [1] deals with His-tagged FcγRIIa_R131 (human).
Test [2] addresses His-tagged FcγRIIb (human) (UniProt P31994).
UniProt P31994, sequence (P31994 43-310): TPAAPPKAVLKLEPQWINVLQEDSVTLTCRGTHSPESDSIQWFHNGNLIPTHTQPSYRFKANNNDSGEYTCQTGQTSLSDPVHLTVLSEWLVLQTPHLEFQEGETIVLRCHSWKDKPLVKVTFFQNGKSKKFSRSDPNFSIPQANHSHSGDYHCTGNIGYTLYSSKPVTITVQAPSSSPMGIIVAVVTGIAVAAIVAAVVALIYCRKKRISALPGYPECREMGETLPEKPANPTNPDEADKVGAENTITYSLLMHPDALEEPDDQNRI
In test [3] the target is His-tagged FcγRIIIa_V158 (human).
Another test deals with His-tagged FcγRI (human) (UniProt P12314).
UniProt P12314, sequence (P12314 16-374): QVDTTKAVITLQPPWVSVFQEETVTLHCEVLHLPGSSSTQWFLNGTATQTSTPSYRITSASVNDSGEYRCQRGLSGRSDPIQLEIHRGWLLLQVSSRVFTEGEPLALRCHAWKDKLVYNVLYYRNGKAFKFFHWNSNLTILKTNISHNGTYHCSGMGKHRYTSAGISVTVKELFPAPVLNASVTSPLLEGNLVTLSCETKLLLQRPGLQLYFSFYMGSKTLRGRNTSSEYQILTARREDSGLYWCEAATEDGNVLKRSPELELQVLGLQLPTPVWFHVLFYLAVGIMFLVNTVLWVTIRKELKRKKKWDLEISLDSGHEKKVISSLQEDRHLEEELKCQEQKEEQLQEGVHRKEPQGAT

With M3 IgG1 glycovariant (antibody), the percent binding (WT = 100%) is 45% in test [1], 65% in test [2] and 70% in test [3].
Regarding G1 IgG1 glycovariant (antibody), in test [3], the percent binding (WT = 100%) was determined as 75%.
In turn, G1+1SA IgG1 glycovariant (antibody) returned a percent binding (WT = 100%) in test [3] of 75%.
In the case of “deglycosylated IgG1 glycovariant (antibody)”, the percent decrease in binding against WT in the test with His-tagged FcγRI (human) was 40%.
G0 IgG1 glycovariant (antibody) registered a percent binding (WT = 100%) in test [3] of 75%.
